Data on seven molecules can be found in publication PMC6689086.

Assay [1] deals with Hsp82 C61-ATTO 550 (S. cerevisiae) (UniProt P02829). Description: FRET or BRET; subunit exchange after mixing of NTD- and MD-labeled dimers, no nucleotide; standard buffer (40 mM HEPES pH 7.5, 150 mM KCl, 5 mM MgCl2), 30 °C. (In BRET a luciferase serves as donor, and the signal depends on an acceptor being close.)
Assay [2] has the same target. Description: FRET or BRET; FRET chase: tenfold excess of unlabeled Hsp90 added to the FRET complex preequilibrated 30 min with 2 mM ATP, 30 °C; apparent.
For assay [3], the target named is Hsc82 C61-ATTO 550 (S. cerevisiae) (UniProt P15108).
For assay [4] the target is unchanged. The experiment in a line: FRET or BRET; subunit exchange after mixing of NTD- and MD-labeled dimers, no nucleotide; standard buffer (40 mM HEPES pH 7.5, 150 mM KCl, 5 mM MgCl2), 30 °C.
For assay [5] the target is unchanged. The experiment in a line: FRET or BRET; FRET chase: tenfold excess of unlabeled Hsp90 added to the FRET complex preequilibrated 30 min with 2 mM ATP, 30 °C; apparent.
The target is the same in assay [6]. The experiment in a line: FRET or BRET; FRET chase: tenfold excess of unlabeled Hsp90 added to the preformed FRET complex (400 nM), without nucleotide, 30 °C; apparent.
In assay [7] the target is Hsp82 protomer of the NM-FRET heterodimer (S. cerevisiae) (UniProt P02829). The experiment in a line: FRET or BRET; subunit exchange after mixing of NTD- and MD-labeled dimers, no nucleotide; standard buffer (40 mM HEPES pH 7.5, 150 mM KCl, 5 mM MgCl2), 30 °C.
For assay [8], the target named is Hsp82 C61-ATTO 550 (S. cerevisiae) (UniProt P02829).

The molecule “Hsp82 C385-ATTO 488 (from UniProt P02829 1-709) (natural protein)” yielded a subunit exchange rate (kse) in assay [1] of 0.034 s⁻¹. Moreover, the reopening of closed state rate, with ATP (kapp as headed; apparent half-life by the legend) in assay [2] was determined as 0.7 min⁻¹.

In assay [3], “p23/Sba1 (from UniProt P28707 1-216) (natural protein)” showed an ATPγS-induced closing rate kapp of the Hsc82 NM-FRET dimer (C61-ATTO 550 with C381-ATTO 488 protomers) with 4 µM Sba1, percentage of kapp without co-chaperone of 78%.

Take “Hsc82 C381-ATTO 488 (from UniProt P15108 1-705) (natural protein)”: the subunit exchange rate (kse) in assay [4] turned out to be 0.037 s⁻¹. The reopening of closed state rate, with ATP (kapp as headed; apparent half-life by the legend) in assay [5] is 0.7 min⁻¹. For the same molecule, the reopening of closed state rate, without nucleotide (t½) in assay [6] is 32 s.

The molecule “Hsc82 protomer of the NM-FRET heterodimer (from UniProt P15108 1-705) (natural protein)” came in with a subunit exchange rate (kse) in assay [7] of 0.03 s⁻¹.

In turn, “Cpr6 (from UniProt P53691 1-371) (natural protein)” had an ATPγS-induced closing rate kapp of the Hsp82 NM-FRET dimer (C61-ATTO 550 with C385-ATTO 488 protomers) with 4 µM Cpr6, percentage of kapp without co-chaperone in assay [8] of 239%. The same molecule showed an ATPγS-induced closing rate kapp of the Hsc82 NM-FRET dimer (C61-ATTO 550 with C381-ATTO 488 protomers) with 4 µM Cpr6, percentage of kapp without co-chaperone in assay [3] of 108%.

B1: Sti1 (natural protein)
chain: MSLTADEYKQQGNAAFTAKDYDKAIELFTKAIEVSETPNHVLYSNRSACYTSLKKFSDALNDANECVKINPSWSKGYNRLGAAHLGLGDLDEAESNYKKALELDASNKAAKEGLDQVHRTQQARQAQPDLGLTQLFADPNLIENLKKNPKTSEMMKDPQLVAKLIGYKQNPQAIGQDLFTDPRLMTIMATLMGVDLNMDDINQSNSMPKEPETSKSTEQKKDAEPQSDSTTSKENSSKAPQKEESKESEPMEVDEDDSKIEADKEKAEGNKFYKARQFDEAIEHYNKAWELHKDITYLNNRAAAEYEKGEYETAISTLNDAVEQGREMRADYKVISKSFARIGNAYHKLGDLKKTIEYYQKSLTEHRTADILTKLRNAEKELKKAEAEAYVNPEKAEEARLEGKEYFTKSDWPNAVKAYTEMIKRAPEDARGYSNRAAALAKLMSFPEAIADCNKAIEKDPNFVRAYIRKATAQIAVKEYASALETLDAARTKDAEVNNGSSAREIDQLYYKASQQRFQPGTSNETPEETYQRAMKDPEVAAIMQDPVMQSILQQAQQNPAALQEHMKNPEVFKKIQTLIAAGIIRTGR
On to B1, for which the ATPγS-induced closing rate kapp of the Hsp82 NM-FRET dimer (C61-ATTO 550 with C385-ATTO 488 protomers) with 4 µM Sti1, percentage of kapp without co-chaperone in assay [8] was found to be 40%. In assay [3], this molecule registered an ATPγS-induced closing rate kapp of the Hsc82 NM-FRET dimer (C61-ATTO 550 with C381-ATTO 488 protomers) with 4 µM Sti1, percentage of kapp without co-chaperone of 19%.

B2: Aha1 (natural protein)
chain: MVVNNPNNWHWVDKNCIGWAKEYFKQKLVGVEAGSVKDKKYAKIKSVSSIEGDCEVNQRKGKVISLFDLKITVLIEGHVDSKDGSALPFEGSINVPEVAFDSEASSYQFDISIFKETSELSEAKPLIRSELLPKLRQIFQQFGKDLLATHGNDIQVPESQVKSNYTRGNQKSSFTEIKDSASKPKKNALPSSTSTSAPVSSTNKVPQNGSGNSTSIYLEPTFNVPSSELYETFLDKQRILAWTRSAQFFNSGPKLETKEKFELFGGNVISELVSCEKDKKLVFHWKLKDWSAPFNSTIEMTFHESQEFHETKLQVKWTGIPVGEEDRVRANFEEYYVRSIKLTFGFGAVL
In the case of B2, the ATPγS-induced closing rate kapp of the Hsp82 NM-FRET dimer (C61-ATTO 550 with C385-ATTO 488 protomers) with 4 µM Aha1, percentage of kapp without co-chaperone in assay [8] came out at 868%. The same molecule came in with an ATPγS-induced closing rate kapp of the Hsc82 NM-FRET dimer (C61-ATTO 550 with C381-ATTO 488 protomers) with 4 µM Aha1, percentage of kapp without co-chaperone in assay [3] of 616%.
